Results as given in PMC4452343, “Monitoring β-arrestin recruitment via β-lactamase enzyme fragment complementation: purification of peptide E as a low-affinity ligand for mammalian bombesin receptors” (PLoS ONE, 2015).

Target: gastrin-releasing peptide receptor (human) (UniProt P30550)
Sequence (P30550 whole entry): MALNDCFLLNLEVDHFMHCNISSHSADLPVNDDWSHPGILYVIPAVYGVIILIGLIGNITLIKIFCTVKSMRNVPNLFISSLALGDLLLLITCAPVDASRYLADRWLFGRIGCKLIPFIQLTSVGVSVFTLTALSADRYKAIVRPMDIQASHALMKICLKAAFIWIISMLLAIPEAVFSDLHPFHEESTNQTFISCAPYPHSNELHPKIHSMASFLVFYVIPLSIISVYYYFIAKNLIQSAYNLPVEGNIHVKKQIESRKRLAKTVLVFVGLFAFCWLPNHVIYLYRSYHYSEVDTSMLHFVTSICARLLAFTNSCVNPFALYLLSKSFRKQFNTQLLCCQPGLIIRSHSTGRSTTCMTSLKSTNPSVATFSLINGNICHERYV

EC50 of NFAT-luciferase reporter activation in CHO cells expressing hGRPR: 0.12 nM
Binder: VPLPAGGGTVLTKMYPRGNHWAVGHLM [gastrin-releasing peptide]
